Laboratory results published in IntAct's records for PubMed 30545121.

B1: Ribosome maturation protein SBDS (Homo sapiens), Q9Y3A5 (parent)
chain: MSIFTPTNQIRLTNVAVVRMKRAGKRFEIACYKNKVVGWRSGVEKDLDEVLQTHSVFVNVSKGQVAKKEDLISAFGTDDQTEICKQILTKGEVQVSDKERHTQLEQMFRDIATIVADKCVNPETKRPYTVILIERAMKDIHYSVKTNKSTKQQALEVIKQLKEKMKIERAHMRLRFILPVNEGKKLKEKLKPLIKVIESEDYGQQLEIVCLIDPGCFREIDELIKKETKGKGSLEVLNLKDVEEGDEKFE
partner: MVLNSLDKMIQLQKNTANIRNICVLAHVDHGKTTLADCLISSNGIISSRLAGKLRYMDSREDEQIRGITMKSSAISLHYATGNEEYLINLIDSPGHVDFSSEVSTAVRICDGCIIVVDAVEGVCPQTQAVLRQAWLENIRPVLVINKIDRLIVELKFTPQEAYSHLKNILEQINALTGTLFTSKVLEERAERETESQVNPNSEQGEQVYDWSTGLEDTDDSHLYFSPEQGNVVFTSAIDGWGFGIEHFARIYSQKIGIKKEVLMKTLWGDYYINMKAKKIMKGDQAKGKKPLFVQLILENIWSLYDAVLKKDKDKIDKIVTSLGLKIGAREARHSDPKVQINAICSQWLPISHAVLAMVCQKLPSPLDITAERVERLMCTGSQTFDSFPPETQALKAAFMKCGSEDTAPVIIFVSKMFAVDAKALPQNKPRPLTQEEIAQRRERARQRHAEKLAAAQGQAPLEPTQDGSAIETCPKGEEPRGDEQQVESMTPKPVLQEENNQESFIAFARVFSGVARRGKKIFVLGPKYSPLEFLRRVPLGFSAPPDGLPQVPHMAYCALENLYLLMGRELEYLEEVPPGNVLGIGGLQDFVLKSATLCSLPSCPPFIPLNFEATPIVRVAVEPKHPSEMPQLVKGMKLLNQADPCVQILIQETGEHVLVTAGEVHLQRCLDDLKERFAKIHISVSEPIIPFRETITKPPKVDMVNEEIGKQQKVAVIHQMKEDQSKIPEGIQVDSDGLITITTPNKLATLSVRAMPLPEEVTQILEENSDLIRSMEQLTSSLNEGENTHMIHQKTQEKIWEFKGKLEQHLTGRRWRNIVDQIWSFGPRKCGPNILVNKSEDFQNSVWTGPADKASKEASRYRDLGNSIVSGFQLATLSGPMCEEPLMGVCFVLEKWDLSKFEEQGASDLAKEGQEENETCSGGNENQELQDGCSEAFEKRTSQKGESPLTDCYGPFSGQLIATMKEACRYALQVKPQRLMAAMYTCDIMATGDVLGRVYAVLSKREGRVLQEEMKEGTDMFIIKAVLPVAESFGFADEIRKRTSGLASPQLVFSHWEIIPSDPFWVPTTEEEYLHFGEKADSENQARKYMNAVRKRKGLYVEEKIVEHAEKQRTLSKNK

Variants of: B1
Details: with efl1_human EFL1, Q7Z2Z2

effect of a mutation on the interaction	Variant
decreasing interaction strength	MSIFTPTNQIRLTNVAVVRMKRAGKRFEIACYKNKVVGWRSGVEKDLDEVLQTHSVFVNVSKGQVAKKEDLISAFGTDDQTEICKQILTKGEVQVSDKERHTQLEQMFRDIATIVADKCVNPETKRPYTVILIERAMKDIHYSVKTNKSTKQQALEVIKQLKEKMKTERAHMRLRFILPVNEGKKLKEKLKPLIKVIESEDYGQQLEIVCLIDPGCFREIDELIKKETKGKGSLEVLNLKDVEEGDEKFE [I167T]
decreasing interaction strength	MSIFTPTNQIRLTNVAVVRMKRAGKRFEIACYKNKVVGWRSGVEKDLDEVLQTHSVFVNVSKGQVAKKEDLISAFGTDDQTEICKQILTKGEVQVSDKERHTQLEQMFRDIATIVADKCVNPETKRPYTVILIERAMKDIHYSVKTNKSTKQQALEVIKQLKEKMKIERAHMRLWFILPVNEGKKLKEKLKPLIKVIESEDYGQQLEIVCLIDPGCFREIDELIKKETKGKGSLEVLNLKDVEEGDEKFE [R175W]
decreasing interaction strength	MSIFTPTNQIRLTNVAVVRMKRAGKRFEIACYKNKVVGWRSGVEKDLDEVLQTHSVFVNVSKGQVAEKEDLISAFGTDDQTEICKQILTKGEVQVSDKERHTQLEQMFRDIATIVADKCVNPETKRPYTVILIERAMKDIHYSVKTNKSTKQQALEVIKQLKEKMKIERAHMRLRFILPVNEGKKLKEKLKPLIKVIESEDYGQQLEIVCLIDPGCFREIDELIKKETKGKGSLEVLNLKDVEEGDEKFE [K67E]
decreasing interaction strength	MSIFTPTNQIRLTNVAVVQMKRAGKRFEIACYKNKVVGWRSGVEKDLDEVLQTHSVFVNVSKGQVAKKEDLISAFGTDDQTEICKQILTKGEVQVSDKERHTQLEQMFRDIATIVADKCVNPETKRPYTVILIERAMKDIHYSVKTNKSTKQQALEVIKQLKEKMKIERAHMRLRFILPVNEGKKLKEKLKPLIKVIESEDYGQQLEIVCLIDPGCFREIDELIKKETKGKGSLEVLNLKDVEEGDEKFE [R19Q]
disrupting interaction strength	MSIFTPTNQIRLTNVAVVRMKRAGKRFEIACYKNKVVGWRSGVEKDLDEVLQTHSVFVNVSKGQVAKKEDLISAFGTDDQTEICKQILTKGEVQVSDKERHTQLEQMFRDIATIVADKCVNPETKRPYTVILIERAMKDIHYLVKTNKSTKQQALEVIKQLKEKMKIERAHMRLRFILPVNEGKKLKEKLKPLIKVIESEDYGQQLEIVCLIDPGCFREIDELIKKETKGKGSLEVLNLKDVEEGDEKFE [S143L]
decreasing interaction strength	MSIFTPTNQIRLTNVAVVRMKRAGKRFEIACYKNKVVGWRSGVEKDLDEVLQTHSVFVNVSKGQVAKKEDLISAFGTDDQTEICKQILTKGEVQVSDKERHTQLEQMFRDIATIVADKCVNPETKTPYTVILIERAMKDIHYSVKTNKSTKQQALEVIKQLKEKMKIERAHMRLRFILPVNEGKKLKEKLKPLIKVIESEDYGQQLEIVCLIDPGCFREIDELIKKETKGKGSLEVLNLKDVEEGDEKFE [R126T]
disrupting interaction strength	MSIFTPTNQIRLTNVAVVRMKRAGKRFEIACYKNKVVGWRSGVEKDLDEVLQTHSVFVNVSKGQVAKKEDLISAFGTDDQTEICKQILTKGEVQVSDKERHTQLEQMFRDIATIVADKCVNPETKRPYTVILIERAMKDIHYSVKTNKSTKQQALEVIKQLKEKMKIERAHMRLRFILPVNEGKKLKEKLKPLIKVIESEDYGQQLEIVCLTDPGCFREIDELIKKETKGKGSLEVLNLKDVEEGDEKFE [I212T]
